Data on 1 molecule can be found in patent publication US20200147199A1.

The target of the experiment is ZIKV E Domain III ([..]), polyhistidine-AviTag, produced in HEK-293-6E cells (ZIKV). The experiment is described as follows: ELISA, biotinylated Z004 on coated ZEDIII, streptavidin-HRP. The conditions noted are these: remark: other sources report otherwise.

B1: Z004 (MEX18_89) (antibody, V domains shown)
VH: EVQLLESGGGLVQPGGSLRLTCATSGFTFRDYAMSWVRQAPGKGLEWVSSYSGIDDSTYYADSVKGRFTISRDNSKSTLSLHMNSLRAEDSALYFCAKDRGPRGVGELFDSWGQGTLVTVSS
VL: DIQMTQSPSTLSASVGDRVTITCRASQSISKWLAWYQQKPGKAPKLLIYTTSTLKSGVPSRFSGSGSGTEFTLTISSLQPDDFATYYCQHFYSVPWTFGQGTKVEIK
For B1, the EC50 was 0.16 µg/mL.
